The labels stand for the following.
B1: Azoarcus group I ribozyme (parent)
chain: GUGCCUUGCGCCGGGAAACCACGCAAGGGAUGGUGUCAAAUUCGGCGAAACCUAAGCGCCCGCCCGGGCGUAUGGCAACGCCGAGCCAAGCUUCGGCGCCUGCGCCGAUGAAGGUGUAGAGACUAGACGGCACCCACCUAAGGCAAACGCUAUGGUGAAGGCAUAGUCCAGGGAGUGGCGAAAGUCACACAAACCGG

Variants of B1 are the subject of the data set. Briefly: reverse-splicing fitness (ratio to wild type); higher = more active; in vitro selection; Mg2+ level not given. The method, boiled down: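 An in vitro group I ribozyme library with randomized positions was T7-transcribed and gel-purified. In triplicate, 10 pmol RNA in EPPS pH 7.5 was reacted with 50 pmoles of a 30-nt RNA substrate for 1 h at 37 °C across several added MgCl2 levels (1–48 mM), then stopped with EDTA. Products were reverse transcribed from a substrate-complementary primer, PCR-amplified and sequenced (HiSeq 4000). Fitness is a variant's read proportion after selection over that before, normalised to wild type.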
On to C82A A111G A120U A145G C150G C169G U176C, for which the reverse-splicing fitness came out at 0.00646. Take C82U A120G A145G C150G C169U U176A: the reverse-splicing fitness was 0.0122. Then C82A A111U A120C A145C C150G U176G, with 0.0032; and A111G C150G, with 0.363; and C82A A111U A120G A145U C150G C169G U176G, with 0.00488. Then C82A A111C A120U A145G C150U C169U U176C, with 0.00469; and C82U A111U A145U C150U U176C, with 0.103. As for C82A A111C A120U C150U U176C, the reverse-splicing fitness was determined as 0.0107. As for C82G A111U A120U A145U C150U U176C, the figure is 0.0131.

For A111G A120G A145C C169G U176G, the reverse-splicing fitness worked out at 0.00658. As for C82G A120U, the figure is 0.251; as for A111C A120G A145G C150A C169A U176A, 0.0174; as for C82G A120C A145U C150U U176G, 0.0119.

On to C82G A111G A120G A145C C150A C169A, for which the reverse-splicing fitness worked out at 0.00854.

For A111C A145G C169G U176C, the reverse-splicing fitness stood at 0.0392.

Take C82U A145G C150U C169A U176A: the reverse-splicing fitness was 0.0158.

As to C82A A111C A120C A145U C169U U176A, the reverse-splicing fitness was 0.0155. Then A111G A120U A145G C150U C169A, with 0.00841; and C82G A111C A145G C150A U176G, with 0.0116. As for C82A A111G A120G A145G C150A C169G U176C, the reverse-splicing fitness came to 0.0239. Then A111C A145C C150A C169G U176C, with 0.0189.

As for A111C A145C C150A C169G U176G, the reverse-splicing fitness stood at 0.00627. For C82A A111C C150G C169G U176C, the reverse-splicing fitness came out at 0.00508. Then C82G A111G A120G A145C U176G, with 0.0063; and A111U A145G C150G, with 0.359. In the case of C82U A111C A120U C150G U176C, the reverse-splicing fitness is 0.00605. As for C82A A111U A120G C169A U176C, the figure is 0.0218; as for C82G A120U A145C C169G U176C, 0.00261.

Take C82U A111U A120C A145U C150U C169A: the reverse-splicing fitness was 0.00828. Then A111G A145C C150U C169G U176C, with 0.0204; and C82G A111G A120U A145U C150U C169A U176G, with 0.00186. As for A111G A120C C150U U176A, the figure is 0.314; as for C82G A111C A120C A145U C150U C169G U176G, 0.0072; as for C82G U176G, 0.14. Then C82G A111U A145G C150A C169A U176A, with 0.0183; and C82A A120G A145G C150G, with 0.00892; and C82G A111C C169G U176C, with 0.0255. Take A111U: the reverse-splicing fitness turned out to be 0.971. As for C82G A111G A145C C150G U176G, the figure is 0.00683; as for C82U A111G A120G A145C C150A C169G U176C, 0.015. As for C82G A111G A120C A145G C150A U176C, the figure is 0.0254; as for C82G A111U A120U C150G C169U U176A, 0.00329.

Regarding C82A A111C A120U C150U C169A, the reverse-splicing fitness came to 0.0052. As for C82U A111C A120G A145G C150G C169A, the figure is 0.0087; as for C82U A111C C150G C169A U176G, 0.00672; as for C82U A111C A120U A145G C169A, 0.00276. Consider A111U A145C U176C, for which the reverse-splicing fitness stood at 0.706. As for C82A A111C A120G A145C C150U C169G, the figure is 0.00775; as for A111U A120C A145U C150U C169U U176C, 0.0381; as for C82U A111C A120G A145U C169G U176C, 0.0109. In the case of A120U A145U C150G C169G U176A, the reverse-splicing fitness amounted to 0.00507.

Turning to C82U A111C A120U A145G C150U U176A, the reverse-splicing fitness stood at 0.00854.

A120U A145G C150U U176A: the reverse-splicing fitness was found to be 0.54. As for C82A A111U A120U A145G C169U U176C, the figure is 0.00428; as for C82A A111G A120C A145C C169G U176C, 0.0238; as for A111U A120C A145G C150U C169U U176A, 0.0282.

For A111G A120G C169U U176G, the reverse-splicing fitness turned out to be 0.011.

For C82U A111C A120U A145C C150U C169A U176G, the reverse-splicing fitness worked out at 0.00235. Then C82G A120C A145U C150A C169G U176A, with 0.014. Regarding C82A A120U A145U C150U U176C, the reverse-splicing fitness is 0.0364. As for C82G A120U A145G C150U C169A U176G, the figure is 0.00223; as for C82G A111U A120G A145C C150G U176G, 0.00342; as for A111C A145C C150A C169A, 0.00829. Then C82A A111C A120C A145C C150G C169G, with 0.00631. For the variant C82A A111U A120U A145U C150U, the reverse-splicing fitness is 0.0173. In the case of C82G A111C A120U A145U C150G C169A U176A, the reverse-splicing fitness is 0.0036. Consider C82U A111C A145G C150A C169G U176C, for which the reverse-splicing fitness turned out to be 0.0256. As for C82G A120U A145U C169U U176C, the figure is 0.00402; as for C82G A120U A145U C169U U176A, 0.00334. Then C82A A111U A120U C150A C169G, with 0.00511; and C82U A111U A120U A145C, with 0.0211. As for C82G A111U A120C A145G C150A, the figure is 0.0162. Consider C82G A120C A145C C150U U176A, for which the reverse-splicing fitness was 0.0221. Consider C82U A111C A145C C150A C169G U176C, for which the reverse-splicing fitness was determined as 0.0205. For the variant C82A A111U A120C A145U C169G U176A, the reverse-splicing fitness turned out to be 0.0204. Regarding C82G A111G A120C A145U C150A C169G U176G, the reverse-splicing fitness worked out at 0.00622. As for C82U A111U A120G A145C C150U C169U, the figure is 0.00734; as for C82A A111C A120U C169A, 0.0037. C82G A111G A120G A145U C150U C169G: the reverse-splicing fitness turned out to be 0.0148. On to A111C A120G A145C C150A C169G, for which the reverse-splicing fitness amounted to 0.0149. On to C82A A111C A145C C150U C169A, for which the reverse-splicing fitness is 0.00801. Take C82A A111U A120U A145U C169A U176G: the reverse-splicing fitness was 0.00222. Then C82G A111G A120G A145C C150G C169G U176G, with 0.00523; and C82A A111U A120G A145G C150A C169G U176A, with 0.0172.
